Earlier results as cited in patent publication US7930157B2, “Computational method and apparatus for predicting polypeptide aggregation or solubility” (Cambridge University Technical Services Ltd., priority 2003, dated 2011).
Read-outs that look alike come from different tables or passages of the source. Values belong to the molecule of their own block, whether it stands above or below them. Where no end group is shown, it is not given here.

Tests used:
[1] = for hydrophobicity: neutral pH, based on partition coefficients from water to octanol
[2] = for charge: neutral pH
[3] = normalised from 0 (high β-sheet propensity) to 1 (low); glycine from theoretical calculations
[4] = experimental aggregation rate of mutant relative to wild type; growth phase only
[5] = compared to the human calcitonin sequence
[6] = pH lower than 6.0, histidine positively charged
[7] = τ obtained using T1 (nucleation time)
[8] = τ obtained using T2 (half time of aggregation)

hydrophobicity [1]: 0.696 kcal/mol
Molecule: N[C@@H](CCC(=O)O)C(=O)O [Glu (E), Glu]

charge (value in brackets) [2, 6]: +1 | hydrophobicity (value in brackets) [1, 6]: 0.686 kcal/mol
Molecule: N[C@@H](Cc1c[nH]cn1)C(=O)O [His (H), His]

charge [2]: +1 | hydrophobicity [1]: 0.662 kcal/mol | β-sheet propensity [3]: 0.34
Molecule: NCCCC[C@H](N)C(=O)O [Lys (K), Lys]

charge [2]: 0 | hydrophobicity [1]: -0.509 kcal/mol | β-sheet propensity [3]: 0.24
Molecule: N[C@@H](Cc1c[nH]c2ccccc12)C(=O)O [Trp (W), Trp]

Molecule: F23A: single-point mutation F23A of amylin (islet amyloid polypeptide), ref. 11 (KCNTATCATQRLANFLVHSSNNAGAILSSTNVGSNTY; ends and bridges not checked; cysteine pairing not given here; UniProt P10997 34-70, looked up, variant F23A)
observed ln (νmut/νwt) [4]: −2.65

Molecule: G24A: single-point mutation G24A of amylin (islet amyloid polypeptide), ref. 11 (KCNTATCATQRLANFLVHSSNNFAAILSSTNVGSNTY; ends and bridges not checked; cysteine pairing not given here; UniProt P10997 34-70, looked up, variant G24A)
observed ln (νmut/νwt) [4]: −0.03

Molecule: I26A: single-point mutation I26A of amylin (islet amyloid polypeptide), ref. 11 (KCNTATCATQRLANFLVHSSNNFGAALSSTNVGSNTY; ends and bridges not checked; cysteine pairing not given here; UniProt P10997 34-70, looked up, variant I26A)
observed ln (νmut/νwt) [4]: −2.39

Molecule: L27A: single-point mutation L27A of amylin (islet amyloid polypeptide), ref. 11 (KCNTATCATQRLANFLVHSSNNFGAIASSTNVGSNTY; ends and bridges not checked; cysteine pairing not given here; UniProt P10997 34-70, looked up, variant L27A)
observed ln (νmut/νwt) [4]: −0.93

Molecule: N22A: single-point mutation N22A of amylin (islet amyloid polypeptide), ref. 11 (KCNTATCATQRLANFLVHSSNAFGAILSSTNVGSNTY; ends and bridges not checked; cysteine pairing not given here; UniProt P10997 34-70, looked up, variant N22A)
observed ln (νmut/νwt) [4]: 0.69

Molecule: S20G: single-point mutation S20G of amylin, ref. 12 (KCNTATCATQRLANFLVHSGNNFGAILSSTNVGSNTY; ends and bridges not checked; cysteine pairing not given here; UniProt P10997 34-70, looked up, variant S20G)
observed ln (νmut/νwt) [4]: 1.01

Molecule: SEQ ID NO 14: calcitonin sequence reported in Zurdo & Dobson (WO 02/083734), 6 modified positions when compared to the human sequence (CGNLSTCMLGKLTQELRKLHTFPQTAIGVGAP; ends and bridges not checked; cysteine pairing not given here)
Observed (τmut/τwt) [5, 7]: 300 | observed ln (νmut/νwt) [5, 7]: −5.71 | Observed (τmut/τwt) [5, 8]: 100 | observed ln (νmut/νwt) [5, 8]: −4.61
